{
  "source": "patent EP4335450A1",
  "about": "(Cellemedy Co., Ltd, dated 2024)",
  "binders": {"B1": {"name": "huHF_Mutant2-dual (other)", "chain": "MTTASTSQVRQNYHAASEAAINAQINLELYASYVYLSMSYYFDRDDVALKNFAKYFLHQSHEEREHAEKLMKLQNQRGGRIALADIQKPDCDDGGSYGSLYAFDIWESGLNAMECALHLEKNVNQSLLALHALATAKNDPHLCDFIETHYLNEQVKAIKELGDHVTNLRKMGAPESGLAEYLFDKHTLGDSDNESMPSFITLASLSTWEGYFDF", "notes": "Ferritin particle of 24 monomers"}},
  "molecular_target": "T1, human transferrin receptor-Fc tag standard (human, UniProt P02786 89-760, limits assumed)",
  "T1 construct": "Coated on the ELISA plate at 2 µg/ml; also called hTfR; not shown: Fc tag",
  "T1 sequence (P02786 89-760 limits assumed)": "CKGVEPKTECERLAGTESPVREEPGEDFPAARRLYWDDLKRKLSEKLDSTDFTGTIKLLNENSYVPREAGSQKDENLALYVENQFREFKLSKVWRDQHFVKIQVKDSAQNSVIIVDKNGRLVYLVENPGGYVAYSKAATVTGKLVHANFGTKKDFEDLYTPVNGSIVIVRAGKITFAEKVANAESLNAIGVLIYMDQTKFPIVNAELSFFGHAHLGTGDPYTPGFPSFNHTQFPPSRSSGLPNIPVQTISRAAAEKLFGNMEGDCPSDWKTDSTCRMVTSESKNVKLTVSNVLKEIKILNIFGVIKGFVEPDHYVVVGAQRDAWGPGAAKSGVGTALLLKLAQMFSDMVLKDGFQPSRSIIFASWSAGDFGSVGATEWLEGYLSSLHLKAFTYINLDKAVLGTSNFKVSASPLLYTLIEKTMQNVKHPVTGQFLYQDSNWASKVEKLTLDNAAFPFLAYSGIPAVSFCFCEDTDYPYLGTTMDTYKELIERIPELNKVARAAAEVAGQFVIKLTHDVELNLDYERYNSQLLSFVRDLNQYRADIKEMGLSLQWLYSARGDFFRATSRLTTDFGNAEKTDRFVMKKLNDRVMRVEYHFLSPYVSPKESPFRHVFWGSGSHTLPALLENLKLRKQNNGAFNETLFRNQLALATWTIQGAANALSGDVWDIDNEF",
  "experiment": "ELISA, hTfR-Fc coated on plate; calculated from an expected saturation point, curve not saturated at 10000 nM",
  "data": [
    {"binder": "B1", "values": [
      {"measurement": "Kd", "result": "~4.4", "unit": "µM"}
    ]}
  ]
}
